Among the data in PMC5553161 are reduction in the level bound, against wild type values, retold here.

This test deals with VAP-B (human (endogenous in Huh7)) (UniProt O95292). The experiment in a line: co-IP; lysates of Huh7 cells stably harboring wild-type, S225D or S225A SGRs immunoprecipitated with antibodies to NAP1L1, Bin1, VAP-A or VAP-B; Western blot for NS5A, quantified (n = 3).
UniProt O95292, sequence (O95292 whole entry): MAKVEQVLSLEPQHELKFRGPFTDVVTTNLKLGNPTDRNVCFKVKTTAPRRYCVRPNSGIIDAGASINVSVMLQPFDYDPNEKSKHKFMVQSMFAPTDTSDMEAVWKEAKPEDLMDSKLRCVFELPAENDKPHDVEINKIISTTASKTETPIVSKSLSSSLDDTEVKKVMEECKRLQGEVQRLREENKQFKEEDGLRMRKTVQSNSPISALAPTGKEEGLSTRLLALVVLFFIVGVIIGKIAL

“One-Strep-tagged (OST) NS5A S225A of hepatitis C virus JFH-1 (genotype 2a) (natural protein)” returned a reduction in the level bound, against wild type of 50%.
